According to IntAct's records for PubMed 25910212:

Legend:
hem1_human ALAS1 = hem1_human ALAS1 (UniProt P13196)
kash5_human KASH5 = molecular target: T1, kash5_human KASH5 (UniProt Q8N6L0)
T1 sequence: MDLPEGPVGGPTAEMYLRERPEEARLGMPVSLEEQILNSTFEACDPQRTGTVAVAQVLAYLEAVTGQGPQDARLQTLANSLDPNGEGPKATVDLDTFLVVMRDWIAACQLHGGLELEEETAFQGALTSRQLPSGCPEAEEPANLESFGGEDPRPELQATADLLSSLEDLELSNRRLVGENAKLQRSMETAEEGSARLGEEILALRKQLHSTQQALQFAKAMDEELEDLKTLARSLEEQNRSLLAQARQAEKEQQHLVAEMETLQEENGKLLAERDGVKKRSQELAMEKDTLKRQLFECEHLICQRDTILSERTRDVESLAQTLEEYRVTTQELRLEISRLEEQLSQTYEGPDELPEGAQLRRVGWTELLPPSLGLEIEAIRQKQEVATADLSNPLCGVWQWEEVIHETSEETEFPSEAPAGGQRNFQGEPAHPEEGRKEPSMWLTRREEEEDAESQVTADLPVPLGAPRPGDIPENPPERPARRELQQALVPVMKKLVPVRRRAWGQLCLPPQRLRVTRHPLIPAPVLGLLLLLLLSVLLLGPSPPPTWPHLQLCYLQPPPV

tsg10_human TSGA10 = tsg10_human TSGA10 (UniProt Q9BZW7)
cep70_human CEP70 = molecular target: T2, cep70_human CEP70 (UniProt Q8NHQ1)
T2 sequence: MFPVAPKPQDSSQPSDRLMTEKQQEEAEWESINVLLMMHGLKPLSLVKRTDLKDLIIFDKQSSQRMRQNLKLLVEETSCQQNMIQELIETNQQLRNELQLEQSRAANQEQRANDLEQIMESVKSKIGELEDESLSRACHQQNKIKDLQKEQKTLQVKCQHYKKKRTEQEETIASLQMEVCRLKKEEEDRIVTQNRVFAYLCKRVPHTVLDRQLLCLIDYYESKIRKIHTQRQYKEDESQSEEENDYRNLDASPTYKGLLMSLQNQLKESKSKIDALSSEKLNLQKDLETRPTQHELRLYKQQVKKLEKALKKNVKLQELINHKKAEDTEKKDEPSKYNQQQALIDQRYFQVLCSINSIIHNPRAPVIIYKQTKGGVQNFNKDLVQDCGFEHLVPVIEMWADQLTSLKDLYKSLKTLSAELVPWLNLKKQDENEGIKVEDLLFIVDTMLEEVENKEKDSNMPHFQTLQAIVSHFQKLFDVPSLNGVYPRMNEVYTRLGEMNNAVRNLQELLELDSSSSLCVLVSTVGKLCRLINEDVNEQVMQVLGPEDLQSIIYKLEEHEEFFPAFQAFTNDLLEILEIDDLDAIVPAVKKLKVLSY

fsd2_human FSD2 = molecular target: T3, fsd2_human FSD2 (UniProt A1L4K1)
T3 sequence: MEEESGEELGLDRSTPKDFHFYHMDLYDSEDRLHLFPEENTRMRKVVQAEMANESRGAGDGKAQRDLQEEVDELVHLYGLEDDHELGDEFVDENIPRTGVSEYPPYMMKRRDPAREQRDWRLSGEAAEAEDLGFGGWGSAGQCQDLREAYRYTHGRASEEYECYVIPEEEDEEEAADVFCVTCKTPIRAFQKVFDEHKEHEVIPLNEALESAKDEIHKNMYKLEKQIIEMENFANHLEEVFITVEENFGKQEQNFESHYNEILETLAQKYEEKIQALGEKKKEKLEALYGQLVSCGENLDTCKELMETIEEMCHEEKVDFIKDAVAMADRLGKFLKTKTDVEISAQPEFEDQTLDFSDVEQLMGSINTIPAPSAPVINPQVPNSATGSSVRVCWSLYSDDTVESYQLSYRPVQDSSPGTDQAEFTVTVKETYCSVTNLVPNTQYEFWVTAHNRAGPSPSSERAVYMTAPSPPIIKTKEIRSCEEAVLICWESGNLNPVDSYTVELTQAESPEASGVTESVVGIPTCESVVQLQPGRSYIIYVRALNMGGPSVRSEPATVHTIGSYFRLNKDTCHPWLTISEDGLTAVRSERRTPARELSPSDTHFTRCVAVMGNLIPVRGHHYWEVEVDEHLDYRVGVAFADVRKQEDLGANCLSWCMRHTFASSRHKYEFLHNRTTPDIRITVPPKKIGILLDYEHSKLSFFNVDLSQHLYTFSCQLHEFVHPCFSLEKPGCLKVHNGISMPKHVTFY

goga2_human GOLGA2 [1] = molecular target: goga2_human GOLGA2 (UniProt Q08379)
tfcp2_human TFCP2 [2] = molecular target: tfcp2_human TFCP2 (UniProt Q12800)
efhc2_human EFHC2 = molecular target: T4, efhc2_human EFHC2 (UniProt Q5JST6)
T4 sequence: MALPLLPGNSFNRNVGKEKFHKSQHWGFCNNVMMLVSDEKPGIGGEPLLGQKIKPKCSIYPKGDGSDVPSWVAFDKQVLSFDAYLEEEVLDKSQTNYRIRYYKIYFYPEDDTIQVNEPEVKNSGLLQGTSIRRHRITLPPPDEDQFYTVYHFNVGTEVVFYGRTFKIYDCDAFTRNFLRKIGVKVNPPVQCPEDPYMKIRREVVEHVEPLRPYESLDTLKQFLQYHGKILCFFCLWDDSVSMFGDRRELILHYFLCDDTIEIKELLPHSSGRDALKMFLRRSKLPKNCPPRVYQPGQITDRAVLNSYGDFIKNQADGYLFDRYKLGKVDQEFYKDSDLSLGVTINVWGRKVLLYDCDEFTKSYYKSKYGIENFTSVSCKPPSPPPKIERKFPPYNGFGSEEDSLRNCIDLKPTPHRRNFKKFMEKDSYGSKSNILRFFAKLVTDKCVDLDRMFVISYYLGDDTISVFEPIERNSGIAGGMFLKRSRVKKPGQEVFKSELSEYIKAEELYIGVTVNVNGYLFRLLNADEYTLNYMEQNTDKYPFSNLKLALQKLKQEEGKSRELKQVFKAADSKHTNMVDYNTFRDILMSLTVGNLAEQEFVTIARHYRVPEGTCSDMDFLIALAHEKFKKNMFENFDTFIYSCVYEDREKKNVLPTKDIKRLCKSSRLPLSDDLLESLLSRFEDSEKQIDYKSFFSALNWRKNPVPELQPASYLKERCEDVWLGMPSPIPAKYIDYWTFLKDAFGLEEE

tmm79_human TMEM79 [3] = molecular target: T5, tmm79_human TMEM79 (UniProt Q9BSE2)
T5 sequence: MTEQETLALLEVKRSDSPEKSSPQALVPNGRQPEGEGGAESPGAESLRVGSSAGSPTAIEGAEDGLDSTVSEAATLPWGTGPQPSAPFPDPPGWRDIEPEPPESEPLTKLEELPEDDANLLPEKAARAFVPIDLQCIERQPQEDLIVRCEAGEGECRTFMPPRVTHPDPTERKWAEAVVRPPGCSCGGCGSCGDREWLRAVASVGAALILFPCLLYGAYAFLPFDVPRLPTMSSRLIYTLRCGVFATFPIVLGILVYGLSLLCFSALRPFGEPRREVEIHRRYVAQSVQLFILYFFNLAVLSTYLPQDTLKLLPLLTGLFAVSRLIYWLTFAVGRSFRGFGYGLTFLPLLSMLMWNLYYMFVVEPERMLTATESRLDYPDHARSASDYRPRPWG

smim3_human SMIM3 [4] = molecular target: T6, smim3_human SMIM3 (UniProt Q9BZL3)
T6 sequence: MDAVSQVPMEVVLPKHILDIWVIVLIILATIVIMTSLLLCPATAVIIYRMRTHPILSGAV

tmm79_human TMEM79 [5] = molecular target: T5, tmm79_human TMEM79; remark: listed apart in the source
SYNE4, Q8N205-2 = molecular target: T7, SYNE4, Q8N205-2
T7 sequence: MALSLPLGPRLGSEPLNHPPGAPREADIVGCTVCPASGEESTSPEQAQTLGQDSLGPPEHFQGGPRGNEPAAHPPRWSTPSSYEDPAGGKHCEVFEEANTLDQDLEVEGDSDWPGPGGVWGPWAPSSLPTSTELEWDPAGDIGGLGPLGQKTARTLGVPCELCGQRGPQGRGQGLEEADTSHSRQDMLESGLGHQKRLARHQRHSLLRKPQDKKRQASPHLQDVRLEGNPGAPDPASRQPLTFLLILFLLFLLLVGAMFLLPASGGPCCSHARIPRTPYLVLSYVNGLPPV

smim3_human SMIM3 [6] = molecular target: T6, smim3_human SMIM3; remark: listed apart in the source
kxdl1_human KXD1 = kxdl1_human KXD1 (UniProt Q9BQD3)
md1l1_human MAD1L1 = md1l1_human MAD1L1 (UniProt Q9Y6D9)
ifit3_human IFIT3 [7] = molecular target: ifit3_human IFIT3 (UniProt O14879)
syce1_human SYCE1 = syce1_human SYCE1 (UniProt Q8N0S2)
goga2_human GOLGA2 [8] = molecular target: goga2_human GOLGA2 (UniProt Q08379); remark: listed apart in the source
tfpt_human TFPT = tfpt_human TFPT (UniProt P0C1Z6)
ifit3_human IFIT3 [9] = molecular target: ifit3_human IFIT3 (UniProt O14879); remark: listed apart in the source
cap2_human CAP2 [10] = molecular target: cap2_human CAP2 (UniProt P40123)
cof2_human CFL2 [11] = molecular target: cof2_human CFL2 (UniProt Q9Y281)
cap2_human CAP2 [12] = molecular target: cap2_human CAP2 (UniProt P40123); remark: listed apart in the source
cof2_human CFL2 [13] = molecular target: cof2_human CFL2 (UniProt Q9Y281); remark: listed apart in the source
cap2_human CAP2 [14] = molecular target: cap2_human CAP2 (UniProt P40123); remark: listed apart in the source
tfcp2_human TFCP2 [15] = molecular target: tfcp2_human TFCP2 (UniProt Q12800); remark: listed apart in the source

Chain of Tropomyosin alpha-1 chain (Homo sapiens), P09493-10 E40K (P09493 other isoform, or with tags, fused parts or gaps E40K): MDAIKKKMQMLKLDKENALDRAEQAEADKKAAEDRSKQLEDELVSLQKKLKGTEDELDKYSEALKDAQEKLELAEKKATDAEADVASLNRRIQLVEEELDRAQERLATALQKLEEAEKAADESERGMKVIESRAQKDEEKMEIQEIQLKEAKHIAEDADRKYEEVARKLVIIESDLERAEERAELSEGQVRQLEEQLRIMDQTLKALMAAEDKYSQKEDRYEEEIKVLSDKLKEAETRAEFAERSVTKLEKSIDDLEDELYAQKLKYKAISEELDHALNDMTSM
Chain of tfcp2_human TFCP2 (Q12800 whole entry): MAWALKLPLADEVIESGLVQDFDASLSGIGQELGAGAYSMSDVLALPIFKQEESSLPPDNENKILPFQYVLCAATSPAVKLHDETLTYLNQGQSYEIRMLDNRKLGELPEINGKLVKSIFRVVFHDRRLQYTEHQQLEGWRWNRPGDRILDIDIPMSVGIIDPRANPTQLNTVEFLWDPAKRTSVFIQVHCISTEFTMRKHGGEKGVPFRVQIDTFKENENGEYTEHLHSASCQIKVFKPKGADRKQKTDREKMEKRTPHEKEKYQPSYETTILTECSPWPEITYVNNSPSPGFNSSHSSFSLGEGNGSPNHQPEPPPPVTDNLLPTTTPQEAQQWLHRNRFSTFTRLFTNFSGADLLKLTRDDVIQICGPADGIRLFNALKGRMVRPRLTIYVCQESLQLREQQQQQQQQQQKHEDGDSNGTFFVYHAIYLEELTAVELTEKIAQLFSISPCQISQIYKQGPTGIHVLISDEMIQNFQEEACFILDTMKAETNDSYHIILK
Chain of goga2_human GOLGA2 (Q08379 whole entry): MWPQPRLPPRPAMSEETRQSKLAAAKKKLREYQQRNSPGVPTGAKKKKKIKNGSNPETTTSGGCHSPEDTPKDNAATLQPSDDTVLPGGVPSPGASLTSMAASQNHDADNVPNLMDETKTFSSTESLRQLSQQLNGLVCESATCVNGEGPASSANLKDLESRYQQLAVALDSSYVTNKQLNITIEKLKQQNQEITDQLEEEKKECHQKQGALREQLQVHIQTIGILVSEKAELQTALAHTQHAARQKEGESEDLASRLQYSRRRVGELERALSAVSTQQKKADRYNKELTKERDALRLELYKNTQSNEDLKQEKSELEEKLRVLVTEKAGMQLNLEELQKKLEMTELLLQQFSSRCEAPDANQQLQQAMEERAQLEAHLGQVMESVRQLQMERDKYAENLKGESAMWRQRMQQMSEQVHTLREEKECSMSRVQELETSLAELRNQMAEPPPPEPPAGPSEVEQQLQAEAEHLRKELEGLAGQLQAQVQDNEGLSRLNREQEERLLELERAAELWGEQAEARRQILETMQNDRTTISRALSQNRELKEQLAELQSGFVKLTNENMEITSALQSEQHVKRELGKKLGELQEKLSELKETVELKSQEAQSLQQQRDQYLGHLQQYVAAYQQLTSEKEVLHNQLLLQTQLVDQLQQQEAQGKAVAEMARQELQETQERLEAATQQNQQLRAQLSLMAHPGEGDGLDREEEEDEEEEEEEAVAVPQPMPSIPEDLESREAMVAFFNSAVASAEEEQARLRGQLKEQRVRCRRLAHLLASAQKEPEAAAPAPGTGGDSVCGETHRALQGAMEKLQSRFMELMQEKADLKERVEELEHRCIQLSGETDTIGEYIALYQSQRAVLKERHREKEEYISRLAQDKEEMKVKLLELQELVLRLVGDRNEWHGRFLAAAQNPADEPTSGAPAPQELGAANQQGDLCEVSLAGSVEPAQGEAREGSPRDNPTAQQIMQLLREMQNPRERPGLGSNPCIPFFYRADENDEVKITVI
Chain of ifit3_human IFIT3 (O14879 whole entry): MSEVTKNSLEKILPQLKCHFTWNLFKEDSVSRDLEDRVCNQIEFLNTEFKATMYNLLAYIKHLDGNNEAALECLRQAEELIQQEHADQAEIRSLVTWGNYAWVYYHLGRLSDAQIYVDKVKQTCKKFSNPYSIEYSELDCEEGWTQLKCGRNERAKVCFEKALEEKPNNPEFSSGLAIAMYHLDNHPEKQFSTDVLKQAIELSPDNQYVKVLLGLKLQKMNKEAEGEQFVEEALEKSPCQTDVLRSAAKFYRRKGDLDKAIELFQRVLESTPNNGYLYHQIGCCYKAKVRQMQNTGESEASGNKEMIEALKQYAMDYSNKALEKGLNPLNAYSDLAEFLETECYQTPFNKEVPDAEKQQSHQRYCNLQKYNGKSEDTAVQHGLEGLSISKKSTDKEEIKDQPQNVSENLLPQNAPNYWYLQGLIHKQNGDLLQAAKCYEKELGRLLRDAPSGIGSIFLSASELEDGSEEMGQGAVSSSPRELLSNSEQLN
Chain of tsg10_human TSGA10 (Q9BZW7 whole entry): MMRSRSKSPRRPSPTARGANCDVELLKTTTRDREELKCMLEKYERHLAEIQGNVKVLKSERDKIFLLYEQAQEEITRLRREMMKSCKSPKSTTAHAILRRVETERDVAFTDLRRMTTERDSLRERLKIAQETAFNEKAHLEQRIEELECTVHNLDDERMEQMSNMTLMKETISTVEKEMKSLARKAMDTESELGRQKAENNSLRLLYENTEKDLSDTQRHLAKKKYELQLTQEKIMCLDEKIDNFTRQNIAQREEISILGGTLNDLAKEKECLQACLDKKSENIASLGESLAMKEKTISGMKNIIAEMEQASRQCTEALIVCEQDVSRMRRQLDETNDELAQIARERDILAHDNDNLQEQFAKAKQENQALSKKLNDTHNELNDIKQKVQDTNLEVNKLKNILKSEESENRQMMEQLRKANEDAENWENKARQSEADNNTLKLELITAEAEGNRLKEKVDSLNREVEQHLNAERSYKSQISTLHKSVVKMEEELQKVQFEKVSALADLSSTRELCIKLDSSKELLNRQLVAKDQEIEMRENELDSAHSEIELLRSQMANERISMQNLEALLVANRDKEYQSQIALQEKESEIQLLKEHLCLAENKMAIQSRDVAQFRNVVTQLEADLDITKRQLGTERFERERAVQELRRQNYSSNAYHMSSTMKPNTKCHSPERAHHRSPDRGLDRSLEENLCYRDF
Chain of hem1_human ALAS1 (P13196 whole entry): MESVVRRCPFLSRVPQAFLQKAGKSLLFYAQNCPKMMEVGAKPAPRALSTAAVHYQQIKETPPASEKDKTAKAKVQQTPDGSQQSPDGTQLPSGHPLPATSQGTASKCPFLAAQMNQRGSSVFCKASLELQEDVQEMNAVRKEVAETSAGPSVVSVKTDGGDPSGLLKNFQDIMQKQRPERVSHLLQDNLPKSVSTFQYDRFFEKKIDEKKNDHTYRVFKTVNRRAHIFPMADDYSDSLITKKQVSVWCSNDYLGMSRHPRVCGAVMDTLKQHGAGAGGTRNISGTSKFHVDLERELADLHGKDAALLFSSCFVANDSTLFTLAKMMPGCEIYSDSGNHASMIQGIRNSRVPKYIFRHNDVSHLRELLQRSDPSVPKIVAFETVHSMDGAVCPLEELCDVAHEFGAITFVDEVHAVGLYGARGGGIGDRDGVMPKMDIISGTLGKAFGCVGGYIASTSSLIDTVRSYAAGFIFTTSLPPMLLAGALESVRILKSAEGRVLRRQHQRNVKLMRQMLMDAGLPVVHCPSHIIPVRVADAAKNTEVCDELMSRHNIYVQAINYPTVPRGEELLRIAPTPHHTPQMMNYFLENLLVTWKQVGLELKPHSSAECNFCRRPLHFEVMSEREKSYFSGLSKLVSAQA
Chain of kxdl1_human KXD1 (Q9BQD3 whole entry): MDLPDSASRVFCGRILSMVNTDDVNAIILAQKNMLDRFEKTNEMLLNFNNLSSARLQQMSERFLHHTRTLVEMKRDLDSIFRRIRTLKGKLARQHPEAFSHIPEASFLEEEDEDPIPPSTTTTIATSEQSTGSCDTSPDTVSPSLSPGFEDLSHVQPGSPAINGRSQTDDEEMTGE
Chain of MTUS2, Q5JR59-3 (Q5JR59 other isoform, or with tags, fused parts or gaps): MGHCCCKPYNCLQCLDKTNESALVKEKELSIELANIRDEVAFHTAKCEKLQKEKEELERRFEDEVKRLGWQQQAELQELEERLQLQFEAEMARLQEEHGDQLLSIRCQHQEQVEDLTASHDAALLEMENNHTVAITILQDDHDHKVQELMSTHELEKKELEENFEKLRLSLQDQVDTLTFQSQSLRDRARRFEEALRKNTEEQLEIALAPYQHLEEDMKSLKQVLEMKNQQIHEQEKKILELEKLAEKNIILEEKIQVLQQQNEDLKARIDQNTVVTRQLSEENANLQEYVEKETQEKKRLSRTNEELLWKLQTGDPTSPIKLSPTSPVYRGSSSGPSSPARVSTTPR
Chain of TNNT1, P13805-3 (P13805 other isoform, or with tags, fused parts or gaps): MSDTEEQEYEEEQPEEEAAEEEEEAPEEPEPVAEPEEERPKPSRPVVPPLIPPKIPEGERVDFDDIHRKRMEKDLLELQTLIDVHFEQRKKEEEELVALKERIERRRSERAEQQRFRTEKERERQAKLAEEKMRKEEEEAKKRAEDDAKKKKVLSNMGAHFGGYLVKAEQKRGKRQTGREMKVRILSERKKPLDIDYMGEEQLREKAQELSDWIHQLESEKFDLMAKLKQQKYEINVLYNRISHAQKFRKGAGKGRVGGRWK
Chain of tfpt_human TFPT (P0C1Z6 whole entry): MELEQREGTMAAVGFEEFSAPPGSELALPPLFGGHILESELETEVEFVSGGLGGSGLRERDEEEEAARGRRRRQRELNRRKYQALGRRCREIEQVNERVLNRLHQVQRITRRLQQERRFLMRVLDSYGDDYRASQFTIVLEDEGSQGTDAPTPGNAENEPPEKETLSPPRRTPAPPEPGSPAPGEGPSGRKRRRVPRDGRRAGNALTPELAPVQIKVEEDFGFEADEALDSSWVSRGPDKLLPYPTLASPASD
Chain of Carbonic anhydrase 1 (Homo sapiens), P00915 R247H (P00915 whole entry R247H): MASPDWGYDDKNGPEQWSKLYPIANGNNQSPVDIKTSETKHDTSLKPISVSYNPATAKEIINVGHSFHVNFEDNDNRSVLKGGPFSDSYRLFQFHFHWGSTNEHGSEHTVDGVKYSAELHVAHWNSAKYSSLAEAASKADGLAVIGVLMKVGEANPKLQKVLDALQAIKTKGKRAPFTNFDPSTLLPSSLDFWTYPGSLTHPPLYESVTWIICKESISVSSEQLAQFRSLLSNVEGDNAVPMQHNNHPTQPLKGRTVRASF

For “Parafibromin (Homo sapiens) (from UniProt Q6P1J9) R91P”, the “effect of a mutation on the interaction” value (hem1_human ALAS1) was “disrupting interaction strength”, the “effect of a mutation on the interaction” value (kash5_human KASH5) was “disrupting interaction strength” and the “effect of a mutation on the interaction” value (tsg10_human TSGA10) was “disrupting interaction strength”. The “effect of a mutation on the interaction” value (cep70_human CEP70) was “disrupting interaction strength”, the “effect of a mutation on the interaction” value (fsd2_human FSD2) was “disrupting interaction strength” and the “effect of a mutation on the interaction” value (MTUS2, Q5JR59-3) was “disrupting interaction strength”. The “effect of a mutation on the interaction” value (goga2_human GOLGA2 [1]) was “disrupting interaction strength” and the “effect of a mutation on the interaction” value (tfcp2_human TFCP2 [2]) was “disrupting interaction strength”.
For “Voltage-dependent L-type calcium channel subunit beta-4 (Homo sapiens) (from UniProt O00305) C104F”, the “effect of a mutation on the interaction” value (efhc2_human EFHC2) was “with no effect”.
For “Surfactant protein C (Homo sapiens) (from UniProt P11686) C189G”, the “effect of a mutation on the interaction” value (tmm79_human TMEM79 [3]) was “with no effect”, the “effect of a mutation on the interaction” value (smim3_human SMIM3 [4]) was “causing an interaction” and the “effect of a mutation on the interaction” value (tmm79_human TMEM79 [5]) was “disrupting interaction strength”. The “effect of a mutation on the interaction” value (SYNE4, Q8N205-2) was “with no effect” and the “effect of a mutation on the interaction” value (smim3_human SMIM3 [6]) was “with no effect”.
“Tropomyosin alpha-1 chain (Homo sapiens), P09493-10 E40K” was tested, and the “effect of a mutation on the interaction” value (kxdl1_human KXD1) was “with no effect”, the “effect of a mutation on the interaction” value (md1l1_human MAD1L1) was “with no effect” and the “effect of a mutation on the interaction” value (ifit3_human IFIT3 [7]) was “with no effect”. The “effect of a mutation on the interaction” value (TNNT1, P13805-3) was “with no effect”, the “effect of a mutation on the interaction” value (syce1_human SYCE1) was “with no effect” and the “effect of a mutation on the interaction” value (goga2_human GOLGA2 [8]) was “disrupting interaction strength”. For the same substance, the “effect of a mutation on the interaction” value (tfpt_human TFPT) was “with no effect”, the “effect of a mutation on the interaction” value (CAGE1, Q8TC20-4) was “with no effect” and the “effect of a mutation on the interaction” value (ifit3_human IFIT3 [9]) was “causing an interaction”.
With “Actin, cytoplasmic 1 (Homo sapiens) (from UniProt P60709) E364K” the “effect of a mutation on the interaction” value (cap2_human CAP2 [10]) was “disrupting interaction strength” and the “effect of a mutation on the interaction” value (cof2_human CFL2 [11]) was “disrupting interaction strength”.
For “Actin, cytoplasmic 2 (Homo sapiens) (from UniProt P63261) P264L”, the “effect of a mutation on the interaction” value (cap2_human CAP2 [12]) was “causing an interaction”, the “effect of a mutation on the interaction” value (cof2_human CFL2 [13]) was “disrupting interaction strength” and the “effect of a mutation on the interaction” value (cap2_human CAP2 [14]) was “with no effect”.
“Surfactant protein C (Homo sapiens) (from UniProt P11686) Y104H” was tested, and the “effect of a mutation on the interaction” value (tmm79_human TMEM79 [3]) was “with no effect”, the “effect of a mutation on the interaction” value (smim3_human SMIM3 [4]) was “causing an interaction” and the “effect of a mutation on the interaction” value (tmm79_human TMEM79 [5]) was “disrupting interaction strength”. For the same substance, the “effect of a mutation on the interaction” value (SYNE4, Q8N205-2) was “with no effect” and the “effect of a mutation on the interaction” value (smim3_human SMIM3 [6]) was “with no effect”.
For “Carbonic anhydrase 1 (Homo sapiens), P00915 R247H”, the “effect of a mutation on the interaction” value (tfcp2_human TFCP2 [15]) was “with no effect”.
With “Carbonic anhydrase 1 (Homo sapiens), P00915 H68R” the “effect of a mutation on the interaction” value (tfcp2_human TFCP2 [15]) was “with no effect”.
In the case of “Voltage-dependent L-type calcium channel subunit beta-4 (Homo sapiens) (from UniProt O00305) R468Q”, the “effect of a mutation on the interaction” value (efhc2_human EFHC2) is reported as “with no effect”.
